This note sets out measurements from PMC4457833, “Effective Optimization of Antibody Affinity by Phage Display Integrated with High-Throughput DNA Synthesis and Sequencing Technologies” (PLoS ONE, 2015).

The experiment has as its target T1, biotinylated recombinant dimeric ErbB2 ECD-Fc fusion protein (Homo sapiens, UniProt P04626, biotin (EZ-Link NHS-PEG4-Biotin labeling kit)).
T1 construct: ErbB2, extracellular domain (ECD); Cloned in the mammalian expression vector pSectag 2A; also called Bio-ECD; source: Expi293, transiently expressed, purified on Protein A, then biotinylated
The experiment is described as follows: SPR; Biacore 3000, 25°C; Bio-ECD (1 μg/ml in PBS) immobilised on SA sensor chip at about 300 RU; antibodies 10 μg/ml in PBS flowed at 30 μl/min, 15 min dissociation; regeneration 50 mM NaOH; triplicate. As to conditions: both partners purified. Background: In SPR one partner is held on a chip, and binding of the other changes the refractive index at the surface.

B1: HuA21 scFv-Fc fusion antibody (humanized anti-ErbB2 antibody HuA21, wild type) (scFv, V domains shown)
VH: QVQLVQSGAEVVKPGASVKISCKASGYSFTGYFINWVKQNPGQRLEWIGHISSSYATSTYNQKFKGKATLTVDTSASTAYMELSSLRSEDTAVYYCVRSGNYEEYAMDYWGQGTLVTVSS
VL: DIVLTQSPDSLAVSLGERVTINCKSSQTLLYSNNQKNYLAWYQQKPGQSPKLLISWAFTRKSGVPDRFSGSGSGTDFTLTISSVQAEDVAVYYCQQYSNYPWTFGAGTKLEIK
notes: the HuA21 scFv gene is deposited in GenBank under KP749832; also called HuA21 (wt); wild-type HuA21; source: Expi293, transfected; conditioned medium (screening ELISA); purified by Protein A and Superdex G200 size-exclusion chromatography (SPR)
By Kd is commonly meant a measure of binding affinity in units of concentration. In general, koff refers to the first-order rate constant of dissociation. The kon is the rate constant with which the complex forms. Turning to B1, the Kd was found to be 4.03 nM, the koff turned out to be 0.000262 s⁻¹ and the kon amounted to 65000 M⁻¹ s⁻¹.
